Patent US20230174596A1 (published 2023)

T1: hVEGF-A (8-109) (human, UniProt P15692 214-315)
T1 construct: residue numbers count on mature VEGF-A; dimer
T1 sequence (looked up): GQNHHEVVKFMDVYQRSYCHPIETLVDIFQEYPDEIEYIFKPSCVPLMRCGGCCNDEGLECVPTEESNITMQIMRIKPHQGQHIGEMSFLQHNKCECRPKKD


Biological target: T1, hVEGF-A (8-109)
Assay: spot phage ELISA

Binder | ELISA | S/N
GCHLFEPLWGCKQDSDCLAGCVCHWYQSCG (designed binder) [VEGF_CKP9.L1.2] | 1.6 | 12.5
GCDVLQPFWGCKQDSDCLAGCVCHWYQSCG (designed binder) [VEGF_CKP9.2] | 2.4 | 31.1
GCPAIQNWKEHPCKQDSDCLAGCVCSWWPSLCG (designed binder) [VEGF_CKP5] | 1.9 | 28.4
GCQLLEPMWGCKQDSDCLAGCVCHWYNSCG (designed binder) [VEGF_CKP9.9] | 1.1 | 19.7
GCKKWQWWYMCKQDSDCLAGCVCYPWTECG (designed binder) [VEGF_CKP4] | 2.6 | 35.3
GCKLLQPMWGCKQDSDCLAGCVCRWYQSCG (designed binder) [VEGF_CKP9.14] | 2 | 30.1
GCQRTQPFWGCKQDSDCLAGCVCRWYQSCG (designed binder) [VEGF_CKP9.22] | 1.2 | 17.2
GCDRMQPYWGCKQDSDCLAGCVCQWYKSCG (designed binder) [VEGF_CKP9.11] | 1.1 | 14.1
GCQISQPFWGCKQDSDCLAGCVCHFYNSCG (designed binder) [VEGF_CKP9.3] | 1.6 | 24.5
GCPRILMRCKQDSDCLAGCVCGPNGFCG [EETI-II] | 0.01 | 1.11

More lines, now with the values ahead:

ELISA | S/N | Binder
1.2 | 12.8 | GCQVMQPAWGCKQDSDCLAGCVCHWYQSCG (designed binder) [VEGF_CKP9.L1.8]
1.5 | 8.9 | GCQVMRPFWGCKQDSDCLAGCVCHWYQSCG (designed binder) [VEGF_CKP9.L1.7]
3 | 25.1 | GCNPMLPLWGCKQDSDCLAGCVCHWYQSCG (designed binder) [VEGF_CKP9.L1.78]
2 | 23.2 | GCDIMQPLWGCKQDSDCLAGCVCHWYQSCG (designed binder) [VEGF_CKP9.L1.68]
1.4 | 18.9 | GCQLMQPFWGCKQDSDCLAGCVCRWYNSCG (designed binder) [VEGF_CKP9.L5.7]
2.5 | 17.4 | GCDLMQPLWGCKQDSDCLAGCVCHWYQSCG (designed binder) [VEGF_CKP9.L1.76]
3.7 | 31.8 | GCNPMLPFWGCKQDSDCLAGCVCHWYQSCG (designed binder) [VEGF_CKP9.L1.57]
0.9 | 13.6 | GCQLMQPFWGCKQDSDCLAGCVCRWYHSCG (designed binder) [VEGF_CKP9.L5.43]
1.2 | 10 | GCQVLQPSWGCKQDSDCLAGCVCHWYQSCG (designed binder) [VEGF_CKP9.L1.79]
1.4 | 11.6 | GCHRLQPLWGCKQDSDCLAGCVCHWYQSCG (designed binder) [VEGF_CKP9.L1.19]
2.3 | 19.9 | GCNVLLPLWGCKQDSDCLAGCVCHWYQSCG (designed binder) [VEGF_CKP9.L1.64]
1.6 | 20.4 | GCQLMQPFWGCKQDSDCLAGCVCHWYQSCG (designed binder) [VEGF_CKP9.L5.18]
